From publication PMC4778049, “A Helitron transposon reconstructed from bats reveals a novel mechanism of genome shuffling in eukaryotes” (Nature Communications, 2016)
Residue numbers refer to the chain shown, from its start.

Tests used:
Helraiser transposase = molecular target: T1, Helraiser transposase (Myotis lucifugus, UniProt Z9MI32ZQP9, K1068Q); experiment: colorimetric ATPase assay (pyrophosphate release as printed); type: biochemical; details: Walker A mutant; ATP hydrolysis abolished
T1 construct: full-length synthesized consensus transposase, 1,496 aa (N-terminal domain, Rep HUH nuclease, SF1 helicase); baculovirus expression, purified
T1 sequence (Z9MI32ZQP9 1-1496 K1068Q): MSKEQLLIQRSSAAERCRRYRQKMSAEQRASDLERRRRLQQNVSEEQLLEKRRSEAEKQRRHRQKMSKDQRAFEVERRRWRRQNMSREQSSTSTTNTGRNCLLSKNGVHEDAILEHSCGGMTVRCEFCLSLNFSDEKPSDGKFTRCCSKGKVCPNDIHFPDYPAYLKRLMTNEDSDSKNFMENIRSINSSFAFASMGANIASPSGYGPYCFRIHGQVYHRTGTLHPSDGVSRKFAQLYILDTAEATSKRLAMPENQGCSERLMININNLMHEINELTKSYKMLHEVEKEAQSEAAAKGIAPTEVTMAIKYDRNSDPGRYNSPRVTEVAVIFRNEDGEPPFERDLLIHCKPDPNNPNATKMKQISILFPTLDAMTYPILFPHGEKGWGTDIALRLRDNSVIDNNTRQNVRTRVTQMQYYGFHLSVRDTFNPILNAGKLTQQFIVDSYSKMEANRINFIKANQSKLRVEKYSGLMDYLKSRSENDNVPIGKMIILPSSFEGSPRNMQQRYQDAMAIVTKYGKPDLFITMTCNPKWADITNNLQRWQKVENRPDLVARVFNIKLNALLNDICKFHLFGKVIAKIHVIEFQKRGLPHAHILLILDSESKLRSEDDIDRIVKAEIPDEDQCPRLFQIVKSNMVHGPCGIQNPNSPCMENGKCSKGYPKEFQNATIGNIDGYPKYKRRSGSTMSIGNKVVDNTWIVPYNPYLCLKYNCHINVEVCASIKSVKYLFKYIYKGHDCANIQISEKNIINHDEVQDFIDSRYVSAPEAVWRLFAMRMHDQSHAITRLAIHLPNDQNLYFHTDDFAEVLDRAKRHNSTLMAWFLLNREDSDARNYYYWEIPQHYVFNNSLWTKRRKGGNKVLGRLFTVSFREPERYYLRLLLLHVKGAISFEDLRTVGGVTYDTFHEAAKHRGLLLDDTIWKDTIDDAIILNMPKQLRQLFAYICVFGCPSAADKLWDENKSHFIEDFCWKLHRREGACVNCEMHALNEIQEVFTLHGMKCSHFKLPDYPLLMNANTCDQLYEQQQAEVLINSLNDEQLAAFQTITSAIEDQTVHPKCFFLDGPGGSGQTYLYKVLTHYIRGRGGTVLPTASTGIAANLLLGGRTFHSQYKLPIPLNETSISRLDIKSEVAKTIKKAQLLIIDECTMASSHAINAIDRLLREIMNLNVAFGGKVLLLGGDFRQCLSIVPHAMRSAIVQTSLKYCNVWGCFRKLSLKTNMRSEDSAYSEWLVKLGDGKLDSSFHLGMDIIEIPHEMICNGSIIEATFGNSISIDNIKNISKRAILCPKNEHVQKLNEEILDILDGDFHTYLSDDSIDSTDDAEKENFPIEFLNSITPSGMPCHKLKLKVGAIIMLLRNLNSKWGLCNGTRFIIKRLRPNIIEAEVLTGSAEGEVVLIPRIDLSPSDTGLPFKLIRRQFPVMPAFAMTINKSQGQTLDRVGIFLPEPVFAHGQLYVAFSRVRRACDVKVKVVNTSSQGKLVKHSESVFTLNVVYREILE

[1] = substrate: Nc1ncnc2c1ncn2[C@@H]1O[C@H](COP(=O)(O)OP(=O)(O)OP(=O)(O)O)[C@@H](O)[C@H]1O; experiment: as above; type: biochemical, Myotis lucifugus; details: DNA, metal, pH and temperature of the Km measurement not told in main text; helicase domain (Walker A) site

## Nc1ncnc2c1ncn2[C@@H]1O[C@H](COP(=O)(O)OP(=O)(O)OP(=O)(O)O)[C@@H](O)[C@H]1O [ATP]
Helraiser transposase
  colorimetric ATPase assay (pyrophosphate release as printed): Mutation of the Walker A motif K1068 abolished ATP hydrolysis

B1: Helraiser transposase (Myotis lucifugus) (protein)
chain: T1 sequence (Z9MI32ZQP9 1-1496 K1068Q) with Q1068K
notes: full-length synthesized consensus transposase, 1,496 aa (N-terminal domain, Rep HUH nuclease, SF1 helicase); baculovirus expression, purified
[1]
  Km: 46 ± 3.3 µM
  kcat: 6.8 ± 0.11 s⁻¹
